Measurements from paper PMC12738692, “Identification, characterization, and structure-activity relationship of the ASIC3-selective peptide WRPRFa” (Communications Chemistry, 2025).
“And” between values parts separate entries of the source, which are not always exact repeats. Identical values can stand only once. Like-named read-outs stand apart in the source and are kept apart here. Where a SMILES comes first, the peptide text is derived from it. Where no end group is shown, it is not given here. [ ]: non-standard residue; d: D form. The star is where a group is joined. Arg(Me2a) = CN(C)C(=N)NCCC[C@H](N)C(=O)O; Cha = N[C@@H](CC1CCCCC1)C(=O)O; pNA = O=[N+]([O-])c1ccc(N*)cc1

Experiments:
[1] = target: T1, human ASIC3 (acid-sensing ion channel 3) (human) (UniProt Q9UHC3)
T1 sequence: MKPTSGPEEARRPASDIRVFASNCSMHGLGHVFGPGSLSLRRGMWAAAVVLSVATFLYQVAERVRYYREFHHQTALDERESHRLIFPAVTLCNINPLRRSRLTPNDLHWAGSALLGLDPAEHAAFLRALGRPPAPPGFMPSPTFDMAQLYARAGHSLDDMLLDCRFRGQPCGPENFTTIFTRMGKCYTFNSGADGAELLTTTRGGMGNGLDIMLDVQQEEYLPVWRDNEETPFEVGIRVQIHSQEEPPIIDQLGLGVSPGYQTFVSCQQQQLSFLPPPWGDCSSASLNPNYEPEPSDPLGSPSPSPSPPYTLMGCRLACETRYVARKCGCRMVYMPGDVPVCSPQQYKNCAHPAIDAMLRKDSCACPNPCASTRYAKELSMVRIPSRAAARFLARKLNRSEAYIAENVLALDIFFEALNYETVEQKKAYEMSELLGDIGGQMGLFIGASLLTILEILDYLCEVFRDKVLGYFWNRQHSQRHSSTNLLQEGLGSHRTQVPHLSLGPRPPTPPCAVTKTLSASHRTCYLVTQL

human ASIC3 [2] = target: T2, human ASIC3 (Homo sapiens, UniProt Q9UHC3); test: QPatch II peptide concentration-response (I3s/Ipk); format: cell-based; conditions: WT ASIC3, QPatch II, read-out: EC50 (95% CI)
T2 construct: CHO cells stably expressing human ASIC3 (NM_004769.1)
T2 sequence (Q9UHC3 1-531): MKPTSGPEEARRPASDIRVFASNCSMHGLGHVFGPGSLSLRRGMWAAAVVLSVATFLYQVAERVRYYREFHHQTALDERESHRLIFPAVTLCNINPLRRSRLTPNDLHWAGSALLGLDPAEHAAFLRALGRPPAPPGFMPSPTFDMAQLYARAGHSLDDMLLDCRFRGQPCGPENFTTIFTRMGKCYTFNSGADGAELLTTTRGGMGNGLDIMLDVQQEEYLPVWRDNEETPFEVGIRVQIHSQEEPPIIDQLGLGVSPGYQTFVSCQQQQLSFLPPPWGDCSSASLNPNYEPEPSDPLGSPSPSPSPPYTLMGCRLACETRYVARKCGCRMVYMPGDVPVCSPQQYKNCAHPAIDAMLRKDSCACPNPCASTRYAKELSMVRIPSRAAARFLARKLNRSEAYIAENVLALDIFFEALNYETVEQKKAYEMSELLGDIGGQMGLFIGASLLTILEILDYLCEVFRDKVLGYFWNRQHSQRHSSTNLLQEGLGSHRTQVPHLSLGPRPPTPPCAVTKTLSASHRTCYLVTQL
Description: RFamide peptide activity on ASIC3 was measured on the QPatch II platform (Sophion, Ballerup, Denmark) using either a CHO or HEK stable cell line and analyzed with Sophion Analyzer software (version 5.2). Prior to recording, the cells were washed twice in PBS (Gibco, Paisley, UK) and treated with Detachin (Genlantis, San Diego) for 3 min, then resuspended in their respective growth media without serum for a concentration of 2 × 10^6 cells/ml. A minimum of 5 mL of cells was added to the QStirrer, which was placed on the deck of the QPatch II and allowed to incubate at room temperature for a minimum of 20 min.
The bath solution contained 135 mM NaCl, 5 mM KCl, 4.8 mM CaCl2, 1 mM MgCl2, 10 mM HEPES, 10 mM MES, and 10 mM glucose adjusted to pH 7.4 with NaOH. The intracellular solution contained 65 mM CsF, 65 mM CsCl, 10 mM HEPES, 5 mM EGTA, 1 mM MgCl2, adjusted to pH 7.4 with CsOH. Cells were held at -60 mV and ASIC currents were evoked with 3 s applications of pH 6.3 buffer. Peptides were preincubated for at least 2 min. The extracellular solution was changed by dispensing 5 µL of buffer through the ~1.7 µL recording chamber, with a solution switch time of 100 ms, that exchanges 99% of the solution. Signals were acquired at 1 kHz and low-pass filtered at 300 Hz. Experiments performed on QPatch II are specifically indicated in the text.

human ASIC3 [3] = target: T2, human ASIC3; test: cell-based
ASIC3 E78Q = target: T3, ASIC3 E78Q (Homo sapiens, UniProt Q9UHC3, E78Q); test: MPC peptide activity on ASIC3 E78Q mutant (I3s/Ipk, peak current, double mutant cycle); format: cell-based; conditions: read-out: EC50 (95% CI)
T3 construct: human ASIC3 (NM_004769.4); P2A-mCherry reporter (C, cleaved yes); expressed in transfected cells; host or cells: CHO cells (85050302, Sigma), transient transfection
T3 sequence (Q9UHC3 1-531 E78Q): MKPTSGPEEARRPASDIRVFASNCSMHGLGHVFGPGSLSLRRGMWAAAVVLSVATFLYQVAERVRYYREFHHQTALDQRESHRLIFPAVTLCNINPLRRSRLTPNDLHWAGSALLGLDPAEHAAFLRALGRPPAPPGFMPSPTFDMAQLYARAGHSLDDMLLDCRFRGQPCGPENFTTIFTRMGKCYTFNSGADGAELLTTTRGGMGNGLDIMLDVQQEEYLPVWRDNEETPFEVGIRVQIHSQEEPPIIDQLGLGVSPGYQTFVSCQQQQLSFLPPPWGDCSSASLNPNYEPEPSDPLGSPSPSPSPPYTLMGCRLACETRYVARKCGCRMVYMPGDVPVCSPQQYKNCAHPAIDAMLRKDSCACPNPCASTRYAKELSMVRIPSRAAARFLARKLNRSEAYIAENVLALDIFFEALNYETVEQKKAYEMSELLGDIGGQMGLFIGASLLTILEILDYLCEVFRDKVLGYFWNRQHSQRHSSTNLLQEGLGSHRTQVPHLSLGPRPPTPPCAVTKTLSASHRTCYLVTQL
Description: We then asked which of the two WRPRFa arginines interacts with the E78/E421 pair. […] To this end, we used a double mutant cycle approach to identify coupling between site 2 or site 4 of WRPRFa with the E78/E421 pair. In this case, the double mutant cycle experiment compared the change in potency caused by single mutations in either WRPRFa or ASIC3 against the change in potency caused by simultaneous mutations in WRPRFa and ASIC3. A coupling coefficient (Ω) can be calculated by dividing the product of the WT/WRPRFa potency and double mutant potency by the product of the two single mutant potencies.
For peptide concentration-response curves, Bottom was set to 0 and Top was constrained to ≤ 1 for peptides that approached plateau phase or where I3s/Ipk reached 1. […] For activation- or desensitization-pH curves, Bottom was set to 0 and Top constrained to 1.

human ASIC3 [4] = target: T2, human ASIC3; format: cell-based; conditions: for Mean (I3s/Ipk), arithmetic / Geometric mean (I3s/Ipk): QPatch II; for Mean (I3s/Ipk), arithmetic: CHO cells
ASIC3 E378Q = target: T4, ASIC3 E378Q (Homo sapiens, UniProt Q9UHC3, E378Q); test: MPC peptide activity on ASIC3 E378Q mutant; format: cell-based; conditions: read-out: EC50 (95% CI)
T4 construct: human ASIC3 (NM_004769.4); P2A-mCherry reporter (C, cleaved yes); expressed in transfected cells; host or cells: CHO cells (85050302, Sigma), transient transfection
T4 sequence (Q9UHC3 1-531 E378Q): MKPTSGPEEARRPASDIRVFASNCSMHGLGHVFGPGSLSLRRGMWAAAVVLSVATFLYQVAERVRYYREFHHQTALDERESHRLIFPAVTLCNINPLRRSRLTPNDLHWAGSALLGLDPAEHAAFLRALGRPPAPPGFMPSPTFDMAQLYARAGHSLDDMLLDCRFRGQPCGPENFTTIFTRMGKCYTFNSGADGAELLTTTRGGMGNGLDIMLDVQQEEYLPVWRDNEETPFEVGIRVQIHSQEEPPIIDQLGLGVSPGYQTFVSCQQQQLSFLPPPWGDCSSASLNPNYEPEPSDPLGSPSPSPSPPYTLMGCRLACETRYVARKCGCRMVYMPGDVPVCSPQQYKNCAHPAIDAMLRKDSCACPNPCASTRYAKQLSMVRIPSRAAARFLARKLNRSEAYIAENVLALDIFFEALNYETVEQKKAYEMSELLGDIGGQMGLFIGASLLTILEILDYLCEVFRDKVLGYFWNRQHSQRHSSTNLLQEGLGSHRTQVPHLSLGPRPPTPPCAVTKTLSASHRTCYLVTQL
Description: (§1) We individually mutated the four glutamates to glutamine to remove their charge but maintain the side chain structure (Fig. 4C). We tested each mutant by incubating HEK cells stably expressing ASIC3 or CHO cells transfected with mutant ASIC3 with 30 µM WRPRFa before a pH 6.3 acid stimulus.
(§2) All mutagenesis was performed at Genscript, and sequences were verified by nanopore sequencing by Plasmidsaurus (Eugene, OR). The numbering of ASIC3 amino acids is based on RefSeq NP_004760.1. Plasmids were transfected into CHO cells using Lipofectamine 3000 (Thermo) according to the manufacturer’s protocol. Cells were used for patch-clamp recordings 24–48 h after transfection.
(§3) CHO and HEK cells were tested in the whole-cell configuration on MPC platforms using an Axopatch 200B amplifier (Axon Instruments, San Jose, CA) and a Digidata 1322A or Digidata 1440A digitizer (Axon) using pClamp 9.2 or 10.7 (Molecular Devices, San Jose, CA), respectively. When testing transfected cells, red fluorescence from the cleaved mCherry reporter was used to identify cells expressing ASIC3, ASIC131, or ASIC313. For cells expressing transfected ASIC1a or ASIC2a, the green signal from the cleaved eGFP reporter was used. All electrophysiology data were analyzed with Clampfit 11.1 (Molecular Devices).

ASIC3 E416Q = target: T5, ASIC3 E416Q (Homo sapiens, UniProt Q9UHC3, E416Q); test: MPC peptide activity on ASIC3 E416Q mutant (incl. double mutant cycle); format: cell-based; conditions: read-out: EC50 (95% CI)
T5 construct: human ASIC3 (NM_004769.4); P2A-mCherry reporter (C, cleaved yes); expressed in transfected cells; host or cells: CHO cells (85050302, Sigma), transient transfection
T5 sequence (Q9UHC3 1-531 E416Q): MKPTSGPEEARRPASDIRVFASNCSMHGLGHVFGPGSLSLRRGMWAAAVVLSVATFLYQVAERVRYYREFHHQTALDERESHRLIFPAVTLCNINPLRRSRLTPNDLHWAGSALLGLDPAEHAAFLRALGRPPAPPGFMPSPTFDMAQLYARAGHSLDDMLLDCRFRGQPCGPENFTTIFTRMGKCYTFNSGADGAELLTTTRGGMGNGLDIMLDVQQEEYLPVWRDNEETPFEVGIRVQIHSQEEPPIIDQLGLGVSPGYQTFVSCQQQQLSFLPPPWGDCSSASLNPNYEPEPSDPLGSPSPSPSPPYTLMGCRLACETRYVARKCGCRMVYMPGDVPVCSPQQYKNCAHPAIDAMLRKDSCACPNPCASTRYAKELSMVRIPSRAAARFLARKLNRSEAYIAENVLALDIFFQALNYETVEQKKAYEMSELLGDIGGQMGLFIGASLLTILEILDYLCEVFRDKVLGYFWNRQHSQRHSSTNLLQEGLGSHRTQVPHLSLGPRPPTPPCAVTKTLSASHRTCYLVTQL
Description: as §1, §2, §3

[5] = target: T1, human ASIC3 (acid-sensing ion channel 3) (human); remark: listed apart in the source
human ASIC3 E78Q (human) = human ASIC3 E78Q (human) (UniProt Q9UHC3)
[6] = target: T1, human ASIC3 (acid-sensing ion channel 3) (human); remark: listed apart in the source

WRPR{Cha}a (peptide)
EC50 of I3s/Ipk, QPatch II [1]: 2.33 µM

WKPRF-NH2 [WKPRFa]
EC50 (human ASIC3 [2]): 9.08 µM

CN(C)C(=N)NCCC[C@H](NC(=O)[C@@H]1CCCN1C(=O)[C@H](CCCNC(=N)N)NC(=O)[C@@H](N)Cc1c[nH]c2ccccc12)C(=O)N[C@@H](Cc1ccccc1)C(N)=O [WRP{ADMA}Fa] (H-WRP[Arg(Me2a)]F-NH2)
EC50 (human ASIC3 [3]): 21.3 µM
EC50 (ASIC3 E78Q): 4.93 µM

RPRF-p-nitroanilide: RPRFa with C-terminal amide replaced by para-nitroanilide (RPRF-pNA)
I3s/Ipk, SAR - RPRFa - 30 uM (human ASIC3 [4]): 0.4296 and 0.3944 and 0.359 and 0.3858 and 0.3642
Mean (I3s/Ipk), arithmetic (human ASIC3 [4]; 30 µM peptide): 0.387
Mean (I3s/Ipk), arithmetic (human ASIC3 [4]; 30 µM peptide, listed as RPRF-p-na): 0.387 ± 0.028

WRPRF-COOH: WRPRFa without C-terminal amidation (WRPRF-OH)
Geometric mean (I3s/Ipk) (human ASIC3 [4]; 3 µM peptide): 0.0303
Geometric mean (I3s/Ipk) (human ASIC3 [4]; 30 µM peptide, pH 6.3): 0.249

N=C(N)NCCC[C@H](NC(=O)[C@@H]1CCCN1C(=O)[C@@H](N)CCCNC(=N)N)C(=O)N[C@@H](Cc1ccccc1)C(N)=O [RPRFa] (H-RPRF-NH2)
EC50 (human ASIC3 [3]): ≥ 21.3 µM

FRPRF-NH2 [FRPRFa]
EC50 (human ASIC3 [2]): 7.84 µM

N=C(N)NCCC[C@H](NC(=O)[C@@H]1CCCN1C(=O)[C@H](CCCNC(=N)N)NC(=O)[C@@H](N)Cc1c[nH]c2ccccc12)C(=O)N[C@@H](CC1CCCCC1)C(N)=O [WRPR{Cha}a] (H-WRPR[Cha]-NH2)
EC50 (human ASIC3 [2]): 2.33 µM

RPRF-COOH: RPRFa without C-terminal amidation (RPRF-OH)
Mean (I3s/Ipk), arithmetic (human ASIC3 [4]; 3 µM peptide): 0.00354
Mean (I3s/Ipk), arithmetic (human ASIC3 [4]; 30 µM peptide): 0.00339 ± 0.00259 and 0.00339

WIPRF-NH2 [WIPRFa]
EC50 (human ASIC3 [2]): ≥ 24 µM
EC50 (ASIC3 E78Q): 1.66 µM
EC50 (ASIC3 E378Q): 20.8 µM
EC50 (ASIC3 E416Q): 10.3 µM

VRPRFa: site 5 Val (VRPRF-NH2)
Geometric mean (I3s/Ipk) (human ASIC3 [4]; 3 µM peptide): 0.0213
Geometric mean (I3s/Ipk) (human ASIC3 [4]; 30 µM peptide, pH 6.3): 0.157

WRP{ADMA}Fa (peptide)
EC50 of I3s/Ipk, escalating peptide before pH 6.3, manual patch clamp [5]: 21.3 µM
EC50 of I3s/Ipk, escalating peptide before pH 6.3, manual patch clamp (human ASIC3 E78Q (human)): 4.93 µM

RPRF-NH2 [RPRFa]
EC50 of I3s/Ipk, RPRFa before a pH 6.3 stimulus, manual patch clamp, HEK cells [6]: > 21.3 µM
